Assay results reported in publication PMC10968091, “Crystallization of Ethylene Plant Hormone Receptor—Screening for Structure” (Biomolecules, 2024).

B1: ETR1^1-157 mT2 (domain or fragment, Arabidopsis thaliana, UniProt P49333 1-157, looked up)
chain: MEVCNCIEPQWPADELLMKYQYISDFFIAIAYFSIPLELIYFVKKSAVFPYRWVLVQFGAFIVLCGATHLINLWTFTTHSRTVALVMTTAKVLTAVVSCATALMLVHIIPDLLSVKTRELFLKNKAAELDREMGLIRTQEETGRHVRMLTHEIRSTL
notes: Ethylene response 1 (ETR1), Arabidopsis thaliana, residues 1-157 (aa 158-738 removed); transmembrane domain; From pGEX4T-1; also called ETR1^1-157 mT2 10x His; source: E. coli C41(DE3)∆(ompF-acrAB), purified (IMAC); not shown: His10, C-terminal, kept
B2: ETR2^1-186 mT2 (domain or fragment, Arabidopsis thaliana, UniProt Q0WPQ2 1-186, looked up)
chain: MVKEIASWLLILSMVVFVSPVLAINGGGYPRCNCEDEGNSFWSTENILETQRVSDFLIAVAYFSIPIELLYFVSCSNVPFKWVLFEFIAFIVLCGMTHLLHGWTYSAHPFRLMMAFTVFKMLTALVSCATAITLITLIPLLLKVKVREFMLKKKAHELGREVGLILIKKETGFHVRMLTQEIRKSL
notes: Ethylene response 2 (ETR2), Arabidopsis thaliana, residues 1-186 (aa 187-773 removed); transmembrane domain; From pGEX4T-1; The plasmid name and the methods put mT2 next to the C-terminal 10x His-tag; also called ETR2 (aa 1-186); ETR2^1-186 mT2 10x His; source: E. coli C41(DE3)∆(ompF-acrAB), purified (IMAC); not shown: His10, C-terminal, kept
B3: ETR1^1-316 (domain or fragment, Arabidopsis thaliana, UniProt P49333 1-316, looked up)
chain: MEVCNCIEPQWPADELLMKYQYISDFFIAIAYFSIPLELIYFVKKSAVFPYRWVLVQFGAFIVLCGATHLINLWTFTTHSRTVALVMTTAKVLTAVVSCATALMLVHIIPDLLSVKTRELFLKNKAAELDREMGLIRTQEETGRHVRMLTHEIRSTLDRHTILKTTLVELGRTLALEECALWMPTRTGLELQLSYTLRHQHPVEYTVPIQLPVINQVFGTSRAVKISPNSPVARLRPVSGKYMLGEVVAVRVPLLHLSNFQINDWPELSTKRYALMVLMLPSDSARQWHVHELELVEVVADQVAVALSHAAILEES
notes: From pETEV16b; also called AtETR1^1-316; ETR1 (aa 1-316); source: E. coli C41(DE3)∆(ompF-acrAB), purified (IMAC); not shown: His10, N-terminal, kept
B4: ETR1^1-407 (domain or fragment, Arabidopsis thaliana, UniProt P49333 1-407, looked up)
chain: MEVCNCIEPQWPADELLMKYQYISDFFIAIAYFSIPLELIYFVKKSAVFPYRWVLVQFGAFIVLCGATHLINLWTFTTHSRTVALVMTTAKVLTAVVSCATALMLVHIIPDLLSVKTRELFLKNKAAELDREMGLIRTQEETGRHVRMLTHEIRSTLDRHTILKTTLVELGRTLALEECALWMPTRTGLELQLSYTLRHQHPVEYTVPIQLPVINQVFGTSRAVKISPNSPVARLRPVSGKYMLGEVVAVRVPLLHLSNFQINDWPELSTKRYALMVLMLPSDSARQWHVHELELVEVVADQVAVALSHAAILEESMRARDLLMEQNVALDLARREAETAIRARNDFLAVMNHEMRTPMHAIIALSSLLQETELTPEQRLMVETILKSSNLLATLMNDVLDLSRLED
notes: Ethylene response 1 (ETR1), Arabidopsis thaliana, residues 1-407; From pETEV16b; also called AtETR1^1-407; source: E. coli C41(DE3)∆(ompF-acrAB), purified (IMAC); not shown: His10, N-terminal, kept

Molecular target: the molecule itself
Assay: SDS-PAGE and Western blot; IMAC-purified receptor constructs on SDS-PAGE (colloidal Coomassie) and Western blot (anti-GFP-HRP for ETR2^1-186 mT2, anti-His-HRP for the others); SDS-stable dimers seen beside monomers

Binding result, binds:
B1
B2
B3
B4
